Numbering of substitutions follows the chain as printed. Where two headings read alike, the source gives them in different places. Each block holds one binder with its values, some of them ahead of it.
What was measured:
[1] = target: T1, CD26 (human, UniProt P27487); test: BLI
[2] = target: T1, CD26; test: BLI; remark: listed apart in the source
[3] = target: 21G584 CD26 fragment 29-237 (human); test: FACS
[4] = target: 21G585 CD26 fragment 29-182 (human); test: FACS
[5] = target: 23G645 CD26 fragment 498-766 (human); test: FACS
[6] = target: 21G583 CD26 fragment 29-300 (human); test: FACS
Chain of 21G583 CD26 fragment 29-300 (human) (chain, as listed by the source): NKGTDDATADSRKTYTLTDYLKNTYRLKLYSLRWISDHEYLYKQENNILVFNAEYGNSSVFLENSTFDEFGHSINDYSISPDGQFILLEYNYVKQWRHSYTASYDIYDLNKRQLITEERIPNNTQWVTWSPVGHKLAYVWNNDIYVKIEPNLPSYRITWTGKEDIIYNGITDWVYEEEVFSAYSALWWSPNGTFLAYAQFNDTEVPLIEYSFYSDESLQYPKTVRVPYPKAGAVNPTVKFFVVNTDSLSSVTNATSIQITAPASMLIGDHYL

T1 sequence (P27487 29-766): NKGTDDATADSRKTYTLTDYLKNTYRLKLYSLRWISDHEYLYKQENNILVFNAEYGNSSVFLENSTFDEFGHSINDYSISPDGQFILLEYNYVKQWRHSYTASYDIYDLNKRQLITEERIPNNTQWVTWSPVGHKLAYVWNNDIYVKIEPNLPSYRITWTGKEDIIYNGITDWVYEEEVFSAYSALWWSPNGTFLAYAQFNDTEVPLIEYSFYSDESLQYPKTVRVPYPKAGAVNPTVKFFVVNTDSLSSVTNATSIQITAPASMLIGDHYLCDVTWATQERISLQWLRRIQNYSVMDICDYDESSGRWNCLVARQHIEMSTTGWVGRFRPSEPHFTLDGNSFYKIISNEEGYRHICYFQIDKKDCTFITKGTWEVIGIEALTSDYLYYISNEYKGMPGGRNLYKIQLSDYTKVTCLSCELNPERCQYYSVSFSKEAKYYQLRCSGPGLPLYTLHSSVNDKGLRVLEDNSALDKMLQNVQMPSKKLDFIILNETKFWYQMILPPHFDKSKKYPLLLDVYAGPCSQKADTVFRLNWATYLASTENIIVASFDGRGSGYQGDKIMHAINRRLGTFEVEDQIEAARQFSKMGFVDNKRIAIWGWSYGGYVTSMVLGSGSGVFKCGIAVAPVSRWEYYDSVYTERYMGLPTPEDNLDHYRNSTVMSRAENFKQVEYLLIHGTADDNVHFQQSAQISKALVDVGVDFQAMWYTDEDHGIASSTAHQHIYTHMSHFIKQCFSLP
Chain of 21G585 CD26 fragment 29-182 (human) (chain, as listed by the source): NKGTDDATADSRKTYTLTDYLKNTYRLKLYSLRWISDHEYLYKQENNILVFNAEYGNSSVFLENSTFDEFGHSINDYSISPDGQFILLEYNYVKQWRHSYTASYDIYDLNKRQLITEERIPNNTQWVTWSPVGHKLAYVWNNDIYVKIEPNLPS
Chain of 21G584 CD26 fragment 29-237 (human) (chain, as listed by the source): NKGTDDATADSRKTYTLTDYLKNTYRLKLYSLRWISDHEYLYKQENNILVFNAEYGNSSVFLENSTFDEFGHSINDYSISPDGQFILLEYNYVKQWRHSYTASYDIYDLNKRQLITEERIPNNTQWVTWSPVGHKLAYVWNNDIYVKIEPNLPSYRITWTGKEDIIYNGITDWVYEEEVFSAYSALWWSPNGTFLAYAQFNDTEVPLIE
Chain of 23G645 CD26 fragment 498-766 (human) (chain, as listed by the source): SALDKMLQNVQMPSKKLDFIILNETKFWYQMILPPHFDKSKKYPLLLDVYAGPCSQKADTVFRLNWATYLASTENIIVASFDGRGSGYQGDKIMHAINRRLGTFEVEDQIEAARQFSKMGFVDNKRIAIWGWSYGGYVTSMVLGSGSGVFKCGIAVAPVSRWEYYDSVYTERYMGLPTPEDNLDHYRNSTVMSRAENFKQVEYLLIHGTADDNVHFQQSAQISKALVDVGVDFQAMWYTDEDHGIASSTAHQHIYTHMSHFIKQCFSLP

binding result [3]: no binding | binding result [4]: no binding | binding result [5]: no binding | binding result [6]: no binding
B3: 21G428-429 (antibody, V domains shown)
VH: EVQLVQSGAELVKPGASVKLSCAASGFNIKDTYIYWVRQAPGQGLEWVGRIEPMNGNTKYDPKFQGRFTMTANTSKNTAYLQLSSLRSEDTAVYYCSRGGWLLLYVMDYWGQGTLVTVSS
VL: DIVMTQSPSSLSVTPGERVSISCRSDKSLLHSNGNTYLYWFLQKPGQSPQVLIYRMSNLASGVPDRFSGSGSGTDFTLTISRVEAEDVGVYYCFQQLEYPYTFGQGTKLEIKR

Kd [1]: 0.914 nM
B5: 19G294 (CD26 arm) (antibody, V domains shown)
VH: B3 VH
VL: DIVMTQSPSSLSVTPGERVSISCRSDKSLLHSNGNTYLYWFLQKPGQSPQVLIYRMSNLASGVPDRFSGSGSGTDFTLTISRVEAEDVGVYYCFQQLEYPYTFGQGTKLEIK

Kd [1]: 0.352 nM
B6: 21G587 (CD26 arm) (antibody, V domains shown)
VH: B3 VH
VL: B5 VL

Kd [1]: 4.4 nM
B7: 19G297 (CD26 arm) (antibody, V domains shown)
VH: EVQLQESGPGLVKPSGTLSLTCAVSGDSITSGYWHWIRQAPGKGLEWVGYINYSGYTYYNPSLKSRFTISRDTSKNQYYLQLNSVTAEDTAVYYCTSERNWGAFAYWGQGTLVTVSS
VL: ENVLTQSPASLSASPGERVTITCRASSSVISTYLHWYQQKPGQAPKLWIYSTSNLASGVPARFSGSGSGTDYTLTISSVEPEDFATYYCQQFSGYPYTFGQGTKLEIK

Kd [1]: 14.8 nM
B8: 19G296 (CD26 arm) (antibody, V domains shown)
VH: B7 VH with E1Q, G16E, A23T, A40P, V48I
VL: B7 VL with S10T, V19A, I21L, T22S, T86V

Continued, binder first:

B1: 19G292 (CD26 arm) (antibody, V domains shown)
VH: QVQLLQSGAEVVKPGASVKISCKASGFNIKDTYIYWVKQPTGQGLEWIGRIEPMNGNTKYDPKFQGRFTMTANTSINTAYLQLSSLTSEDTAVYYCSRGGWLLLYVMDYWGQGTTVTVSS
VL: B5 VL with P8A, S12P, R18S, K44R, D75E, Q105P
Kd [1]: < 0.001 nM

B2: 17G105 (CD26 arm) (antibody)
chain: DIVLTQSPASLAVSLGQRATISCRASESVEYYGTSLMQWYQQKPGQPPKLLIYTASNVESGVPVRFSGSGSGTDFSLNIHPVEEDDIAMYFCQQSRKVPYTFGGGTKLEIKGGGGSGGGGSGGGGSQVQLQQSGPELMKPGASVKISCKATGYSFSGFWIEWVKQRPGHGLEWIGEILPGSGASNYHENFKGRATITADTSANTAYMQLRSLTSEDSAVYYCARERYYGSKYFDVWGAGTTVTVSS
Kd [2]: 39.3 nM

B4: 19G293 (CD26 arm) (antibody, V domains shown)
VH: B3 VH with E1Q, A23K, V48I, F68V, K76I, Q82E
VL: B5 VL with S9L, R18P, V19A, T79K
Kd [1]: < 0.001 nM

B9: 17G29 (CD26 arm, YS110) (antibody, V domains shown)
VH: EVQLVESGAGVKQPGGTLRLTCTASGFSLTTYGVHWVRQAPGKGLEWVGVIWGDGRTDYDAAFMSRVTISKDTSKSTVYLQMNSLRAEDTAVYYCMRNRHDWFDYWGQGTTVTVSS
VL: DILLTQSPSSLSATPGERATITCRASQGIRNNLNWYQQKPGQAPRLLIYYSSNLQSGVPSRFSGSGSGTDFTLTISRLQPEDVAAYYCQQSIKLPFTFGSGTKVEIK
Kd [1]: 1.18 nM

B10: 17G61 (CD26 arm) (antibody)
chain: DIVMTQAAPSVSVTPGESVSISCRSDKSLLHSNGNTYLYWFLQRPGQSPQVLIYRMSNLASGVPDRFSGSGSGTGFTLRVSRVEAEDVGVYYCFQQLEYPYTFGGGTKLEIKGGGGSGGGGSGGGGSEVQLQQSGAELVKPGASVKLSCTASGFNIKDTYIYWVKQRPGQGLEWIGRIEPMNGNTKYDPKFQGKATMTANTSSNTAYLHLSSLASEDTAVYFCSRGGWLLLYVMDYWGQGTSVTVSS
Kd [2]: 17.3 nM
